Assay results as given in patent publication US20220034884A1 (GOVERNMENT OF THE UNITED STATES OF AMERICA AS REPRESENTED …, published 2022).

Molecular target: T1, C-terminal GFP-tagged ACE2 fusion protein stably expressed on HEK293T cells (ACE2-GFP HEK293T) (UniProt Q9BYF1 18-805)
T1 construct: also called ACE2-GFP HEK293T clone 2; ACE2-GFP HEK293T clone 1
Assay: live-cell confocal imaging of ACE2-GFP HEK293T cells

T1 sequence (Q9BYF1 18-805): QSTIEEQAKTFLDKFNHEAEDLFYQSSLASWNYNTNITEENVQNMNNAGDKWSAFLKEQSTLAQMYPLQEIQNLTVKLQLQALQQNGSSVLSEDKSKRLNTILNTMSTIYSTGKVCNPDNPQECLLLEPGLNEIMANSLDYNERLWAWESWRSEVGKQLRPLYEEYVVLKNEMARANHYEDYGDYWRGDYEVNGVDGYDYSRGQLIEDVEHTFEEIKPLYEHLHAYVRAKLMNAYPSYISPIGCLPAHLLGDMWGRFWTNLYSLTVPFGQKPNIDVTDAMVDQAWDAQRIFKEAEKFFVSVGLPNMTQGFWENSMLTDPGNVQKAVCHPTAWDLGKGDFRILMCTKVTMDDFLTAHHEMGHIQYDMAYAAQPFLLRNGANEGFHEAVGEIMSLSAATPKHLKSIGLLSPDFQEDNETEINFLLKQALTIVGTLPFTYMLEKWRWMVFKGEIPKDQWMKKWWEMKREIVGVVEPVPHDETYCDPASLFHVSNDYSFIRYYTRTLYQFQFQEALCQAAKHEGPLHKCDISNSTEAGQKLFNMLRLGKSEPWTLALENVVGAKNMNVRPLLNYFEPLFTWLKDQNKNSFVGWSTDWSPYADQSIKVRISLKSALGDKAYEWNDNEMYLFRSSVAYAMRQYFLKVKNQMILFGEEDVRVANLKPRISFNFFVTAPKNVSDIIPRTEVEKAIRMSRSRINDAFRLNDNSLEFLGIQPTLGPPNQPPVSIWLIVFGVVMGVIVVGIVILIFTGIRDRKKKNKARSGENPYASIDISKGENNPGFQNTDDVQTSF

B1: SARS-CoV [change] (40150-V08B1) (ligand)
chain: not shown
- binding result: binds
